The values below come from patent US20220186225, “COMPOUNDS FOR DETECTING AND TREATING MYCOPLASMA HYOPNEUMONIAE” (AEROVIRUS TECHNOLOGIES INC., published 2022).

This series deals with T1, P97 cilium adhesin peptidic complex (F2P97 / R1-containing section, SELEX target) (Mycoplasma hyopneumoniae).
T1 chain: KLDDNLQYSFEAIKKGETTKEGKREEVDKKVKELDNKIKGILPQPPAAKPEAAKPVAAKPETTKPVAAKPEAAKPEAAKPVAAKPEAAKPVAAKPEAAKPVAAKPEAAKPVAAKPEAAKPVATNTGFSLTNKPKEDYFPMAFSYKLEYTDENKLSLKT
Nature of the series: ELISA; reverse screening on streptavidin plate, 37 C. The conditions noted are these: tags: His tag (Ni-NTA captured); label: biotin in reverse screening. On the procedure:
Reverse Screening of Aptamer—Selected ssDNA molecules from each individual clone were biotinylated using the B-T3 which is same sequence with 5′ primer (T3 primer), and Klenow fragment (2 unit/ml). To prepare single stranded biotin conjugated APT3Cooc10 aptamer for the reverse screening. T3 Primer was Biotin labelled. A 96-well flat bottom ELISA plate was prepared by coating each well with 100 μl of streptavidin (100 μg/ml) diluted in 0.1 M NaHCO₃ following by a 37° C. overnight incubation. Following several washings with PBS, wells were blocked with 200 μl of PBS containing 1% BSA for 2 hours at room temperature and subsequent washing three times with PBS-T (10 mM PBS containing 0.05% (v/v) Tween-20). Thereafter, 100 μl of 2.5 pmole/100 μl biotinylated-ssDNA were added to the wells and incubated at 37° C. for 2 hours followed by washing four times with PBS-T. T3 primer was used as negative control. Following washing, 100 μl of fluid containing 2 μg histidine labelled P97 peptidic complex were added to the indicated wells and incubated at 37° C. for 2 hours. […]
Enzyme-Linked Immunosorbent Assay (ELISA)—The ELISA tests were carried-out following all the guidelines provided with the DAKO kit. Reaction was terminated with 100 μl of 0.5M H₂SO₄, and the plates were read with a multichannel spectrophotometer at 450 nm.
(ELISA stands for enzyme-linked immunosorbent assay.)

B1: APT3Cooc3 (ssDNA)
DNA: GCCTGTTGTGAGCCTCCTAACTAGCTCGTAGAAAAAAAATATAGCGTGTGCTGGGACTGCTCGGGATTGCGGACACATGCTTATTCTTGTCTCCC
With B1, the binding result was “binds”.

B2: APT3Histo1 (ssDNA)
DNA: GCCTGTTGTGAGCCTCCTAACCGCACGTGGGTATTCTAAGTGCGGTAGCTCAATGGTGAGCGATGAGCATCATGCTTATTCTTGTCTCCC
For the molecule B2, the binding result was “binds”.
